Laboratory results: PMC5247461

Target: OsPUB2 recombinant protein, bacterially expressed ((His)6-OsPUB2 and MBP-OsPUB2) (rice (Oryza sativa L.))

Substance: OsPUB3 recombinant protein, bacterially expressed ((His)6-OsPUB3 and MBP-OsPUB3) (natural protein)
- apparent half-life of MBP-OsPUB2 in mock-treated rice cell-free extract when mixed with (His)6-OsPUB3 (150 min without it); cell-free degradation assay, 0-6 h at 30°C: 4.17 h
- apparent half-life of MBP-OsPUB3 in mock-treated rice cell-free extract when mixed with (His)6-OsPUB2 (140 min without it); cell-free degradation assay, 0-6 h at 30°C: 5.83 h
